Broadly, the Kd is the equilibrium constant for the complex coming apart.

Results on 13 molecules are retold here after article PMC12167799, “The role of human Shu complex in ATP-dependent regulation of RAD51 filaments during homologous recombination–associated DNA damage response”.

In series [1] the target is T1, SWSAP1 (hSWS1-SWSAP1, WT);hSWS1 (Homo sapiens;Homo sapiens, UniProt Q6NVH7;Q19AV6 22-250;1-140, |).
T1 sequence 1: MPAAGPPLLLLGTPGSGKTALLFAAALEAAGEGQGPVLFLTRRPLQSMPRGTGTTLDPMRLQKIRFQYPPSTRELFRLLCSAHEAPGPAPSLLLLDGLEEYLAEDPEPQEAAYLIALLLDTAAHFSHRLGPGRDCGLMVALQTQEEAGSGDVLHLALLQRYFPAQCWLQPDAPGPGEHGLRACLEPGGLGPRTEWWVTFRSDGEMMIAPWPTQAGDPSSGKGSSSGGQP
T1 sequence 2: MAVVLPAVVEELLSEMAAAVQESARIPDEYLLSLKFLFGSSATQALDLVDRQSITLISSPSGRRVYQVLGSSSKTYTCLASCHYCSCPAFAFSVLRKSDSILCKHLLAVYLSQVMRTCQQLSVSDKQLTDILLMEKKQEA
Put plainly: fluorescence polarization; no nucleotide; FPA: 5 nM 6-FAM DNA, 37 C, 2 mM nucleotide where stated (buffer not given in material); EMSA: 0.05 uM 6-FAM DNA, 5%/15% native PAGE; RAD51 filaments: 2 mM ATP. The settings on record: protein: recombinant;recombinant, tags: N-terminal 6xHis-TEV, cleaved;none, copies: 1;1. (Fluorescence polarisation rises when a labelled molecule tumbles more slowly, as on binding a larger partner.)

The target in series [2] is T2, RAD51 (Homo sapiens, UniProt Q06609 1-339). As to the kind of experiment: competition (fluorescence intensity); 2 mM ATP; 100x unlabeled dT39 lowers signal ~30%; FPA: 5 nM 6-FAM DNA, 37 C, 2 mM nucleotide where stated (buffer not given in material); EMSA: 0.05 uM 6-FAM DNA, 5%/15% native PAGE; RAD51 filaments: 2 mM ATP. Particulars: protein: recombinant; tags: none; chain copies: 10; label: 3' 6-FAM. Background: Mobility shift assays separate free from complexed probe on a gel.
T2 sequence (Q06609 whole entry): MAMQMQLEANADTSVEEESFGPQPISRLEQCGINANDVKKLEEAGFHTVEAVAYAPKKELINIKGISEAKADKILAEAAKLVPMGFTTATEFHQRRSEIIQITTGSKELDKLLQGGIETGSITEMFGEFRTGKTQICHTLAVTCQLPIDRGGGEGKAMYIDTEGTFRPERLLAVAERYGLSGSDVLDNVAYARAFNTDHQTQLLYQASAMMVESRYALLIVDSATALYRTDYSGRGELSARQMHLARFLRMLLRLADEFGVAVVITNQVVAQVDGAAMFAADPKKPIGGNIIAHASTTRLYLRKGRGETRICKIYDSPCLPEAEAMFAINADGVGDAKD

Series [3] addresses T3, SWSAP1 K18A (Walker A);hSWS1 (Homo sapiens;Homo sapiens, UniProt Q6NVH7;Q19AV6 22-250;1-140, K39A|).
T3 sequence 1: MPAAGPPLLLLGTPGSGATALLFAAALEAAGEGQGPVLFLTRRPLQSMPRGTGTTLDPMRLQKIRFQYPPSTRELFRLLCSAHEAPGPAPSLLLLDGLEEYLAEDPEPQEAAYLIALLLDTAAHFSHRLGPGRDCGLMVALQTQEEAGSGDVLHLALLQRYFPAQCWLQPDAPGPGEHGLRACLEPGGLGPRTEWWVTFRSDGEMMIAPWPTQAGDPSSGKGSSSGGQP
T3 sequence 2: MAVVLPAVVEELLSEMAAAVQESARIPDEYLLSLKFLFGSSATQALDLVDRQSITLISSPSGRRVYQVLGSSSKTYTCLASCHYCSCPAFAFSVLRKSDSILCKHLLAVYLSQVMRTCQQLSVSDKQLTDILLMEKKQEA
As to the kind of experiment: fluorescence polarization; 2 mM ADP; FPA: 5 nM 6-FAM DNA, 37 C, 2 mM nucleotide where stated (buffer not given in material); EMSA: 0.05 uM 6-FAM DNA, 5%/15% native PAGE; RAD51 filaments: 2 mM ATP. The settings on record: protein: recombinant;recombinant, tags: N-terminal 6xHis-TEV, cleaved;none, copies: 1;1.

The target of series [4] is T3, SWSAP1 K18A (Walker A);hSWS1. Put plainly: fluorescence polarization; 2 mM ATP; FPA: 5 nM 6-FAM DNA, 37 C, 2 mM nucleotide where stated (buffer not given in material); EMSA: 0.05 uM 6-FAM DNA, 5%/15% native PAGE; RAD51 filaments: 2 mM ATP. The settings on record: protein: recombinant;recombinant, tags: N-terminal 6xHis-TEV, cleaved;none, copies: 1;1.
Series [5] has the same target. As to the kind of experiment: fluorescence polarization; no nucleotide; FPA: 5 nM 6-FAM DNA, 37 C, 2 mM nucleotide where stated (buffer not given in material); EMSA: 0.05 uM 6-FAM DNA, 5%/15% native PAGE; RAD51 filaments: 2 mM ATP. Particulars: protein: recombinant;recombinant, tags: N-terminal 6xHis-TEV, cleaved;none, copies: 1;1.
Series [6] addresses T4, SWSAP1 D96A (Walker B);hSWS1 (Homo sapiens;Homo sapiens, UniProt Q6NVH7;Q19AV6 22-250;1-140, D117A|).
T4 sequence 1: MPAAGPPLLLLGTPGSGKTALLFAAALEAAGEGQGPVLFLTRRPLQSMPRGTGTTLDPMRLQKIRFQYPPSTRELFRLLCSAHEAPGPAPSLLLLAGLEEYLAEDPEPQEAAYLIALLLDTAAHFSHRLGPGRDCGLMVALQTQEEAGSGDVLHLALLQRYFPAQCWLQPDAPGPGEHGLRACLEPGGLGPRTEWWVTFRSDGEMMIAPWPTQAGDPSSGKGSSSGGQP
T4 sequence 2: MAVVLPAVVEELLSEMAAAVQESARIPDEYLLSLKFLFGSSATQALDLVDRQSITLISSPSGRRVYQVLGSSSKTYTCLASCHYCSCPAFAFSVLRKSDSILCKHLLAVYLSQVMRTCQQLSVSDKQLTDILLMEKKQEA
The series is described as above. The settings on record: protein: recombinant;recombinant, tags: N-terminal 6xHis-TEV, cleaved;none, copies: 1;1.

In series [7] the target is T4, SWSAP1 D96A (Walker B);hSWS1. As to the kind of experiment: fluorescence polarization; 2 mM ADP; FPA: 5 nM 6-FAM DNA, 37 C, 2 mM nucleotide where stated (buffer not given in material); EMSA: 0.05 uM 6-FAM DNA, 5%/15% native PAGE; RAD51 filaments: 2 mM ATP. Particulars: protein: recombinant;recombinant, tags: N-terminal 6xHis-TEV, cleaved;none, copies: 1;1.
In series [8] the target is T1, SWSAP1 (hSWS1-SWSAP1, WT);hSWS1. Described as above. The settings on record: protein: recombinant;recombinant, tags: N-terminal 6xHis-TEV, cleaved;none, copies: 1;1.
Series [9] deals with T4, SWSAP1 D96A (Walker B);hSWS1. Put plainly: fluorescence polarization; 2 mM ATP; FPA: 5 nM 6-FAM DNA, 37 C, 2 mM nucleotide where stated (buffer not given in material); EMSA: 0.05 uM 6-FAM DNA, 5%/15% native PAGE; RAD51 filaments: 2 mM ATP. The settings on record: protein: recombinant;recombinant, tags: N-terminal 6xHis-TEV, cleaved;none, copies: 1;1.
The target of series [10] is T1, SWSAP1 (hSWS1-SWSAP1, WT);hSWS1. The description is as above. The settings on record: protein: recombinant;recombinant, tags: N-terminal 6xHis-TEV, cleaved;none, copies: 1;1.
In series [11] the target is T2, RAD51. Put plainly: DNase I protection; 2 mM ATP; FPA: 5 nM 6-FAM DNA, 37 C, 2 mM nucleotide where stated (buffer not given in material); EMSA: 0.05 uM 6-FAM DNA, 5%/15% native PAGE; RAD51 filaments: 2 mM ATP. The settings on record: protein: recombinant, tags: none, chain copies: 10.
For series [12], the target named is RAD51;SWSAP1 (hSWS1-SWSAP1, WT);hSWS1 (Homo sapiens;Homo sapiens;Homo sapiens, UniProt Q06609;Q6NVH7;Q19AV6 1-339;22-250;1-140, ||). As to the kind of experiment: DNase I protection; 2 mM ATP; Shu increases digestion of filament; FPA: 5 nM 6-FAM DNA, 37 C, 2 mM nucleotide where stated (buffer not given in material); EMSA: 0.05 uM 6-FAM DNA, 5%/15% native PAGE; RAD51 filaments: 2 mM ATP. Particulars: protein: recombinant;recombinant;recombinant, tags: none;N-terminal 6xHis-TEV, cleaved;none.
RAD51;SWSAP1 (hSWS1-SWSAP1, WT);hSWS1, sequence (Q06609 whole entry, one chain of several): as the sequence (Q06609 whole entry) above

[13] abbreviates: label: 5' 6-FAM on strand 1, blunt.
Setting [14] is: label: 3' 6-FAM on strand 1, 3' overhang 20 nt.
[15] abbreviates: label: 3' 6-FAM on strand 1, fork 1:2, 19 bp duplex, 20 nt arms.
[16] abbreviates: label: 3' 6-FAM on strand 1, blunt.
Setting [17] is: label: 3' 6-FAM on strand 1, 5' overhang 20 nt.

B1: ds21 (dsDNA)
DNA 1: ACTTACAGCACAGCGGTTTTT
DNA 2: AAAAACCGCTGTGCTGTAAGT
For the molecule B1, the dissociation constant Kd in series [1] (setting [13]) stood at 43.7 ± 0.4 µM.

TTTTTTTTTTTTTTTTTTTTTTTTTTTTTTTTTTTTTTT (ssDNA) [*3'-(T)39]: the binding result with RAD51 [2] is on record as “binds”.

B2: 3'-overhang (dsDNA)
DNA 1: CTTGACAAGCTTGCGCACT
DNA 2: AGTGCGCAAGCTTGTCAAGGCACTTTTTTTTTTTTTTTT
Regarding B2, the equilibrium dissociation constant (Kd) in series [3] (setting [14]) was 8.7 ± 0.4 µM; in series [4] (setting [14]), 7.3 ± 0.6 µM; in [5] (setting [14]), 7.1 ± 0.2 µM; in series [6] (setting [14]), 11 ± 0.8 µM; in [1] (setting [14]) it was 14.9 ± 0.7 µM.

Regarding TTTTTTTTTTTTTTTTTTTTCTTGACAAGCTTGCGCACT (ssDNA) [ss39], the Kd in series [3] (label: 3' 6-FAM) is 7.4 ± 0.2 µM; in series [7] (label: 3' 6-FAM), 3.9 ± 0.3 µM; in series [8] (label: 3' 6-FAM) it was 3.2 ± 0.2 µM; in series [4] (label: 3' 6-FAM) it was 9.5 ± 0.7 µM; in [9] (label: 3' 6-FAM), 7.8 ± 0.4 µM; in [10] (label: 3' 6-FAM) it was 6.9 ± 0.7 µM. Besides, the results for the Kd in series [5] (label: 3' 6-FAM), in series [6] (label: 3' 6-FAM) and in series [1] (label: 3' 6-FAM) were 9.9 ± 0.4 µM, 10.4 ± 0.7 µM and 11.2 ± 0.4 µM, respectively.

B3: Fork (dsDNA)
DNA 1: TTTTTTTTTTTTTTTTTTTTCTTGACAAGCTTGCGCACT
DNA 2: AGTGCGCAAGCTTGTCAAGGCACTTTTTTTTTTTTTTTT
Regarding B3, the Kd in series [3] (setting [15]) came to 7 ± 0.8 µM; in series [7] (setting [15]), 33.9 ± 0.9 µM; in series [8] (setting [15]), 25.6 ± 0.7 µM; in series [4] (setting [15]), 8.2 ± 0.4 µM; in series [9] (setting [15]), 22.4 ± 0.4 µM; in series [10] (setting [15]), 18.6 ± 0.7 µM. In addition, the Kd came out at 4.6 ± 0.4 µM in [5] (setting [15]), 7.4 ± 0.4 µM in series [6] (setting [15]) and 7.7 ± 0.5 µM in series [1] (setting [15]).

B4: ds39 (dsDNA)
DNA 1: TTTTTTTTTTTTTTTTTTTTCTTGACAAGCTTGCGCACT
DNA 2: AGTGCGCAAGCTTGTCAAGAAAAAAAAAAAAAAAAAAAA
For B4, the Kd in series [3] (setting [16]) amounted to 8.73 ± 0.7 µM; in series [4] (setting [16]), 10 ± 0.9 µM; in series [5] (setting [16]), 12.2 ± 1 µM; in series [6] (setting [16]), 13.6 ± 0.6 µM; in series [1] (setting [16]), 19.2 ± 0.9 µM.

B5: 5'-overhang (dsDNA)
DNA 1: TTTTTTTTTTTTTTTTTTTTCTTGACAAGCTTGCGCACT
DNA 2: AGTGCGCAAGCTTGTCAAG
For the molecule B5, the Kd turned out to be 3.4 ± 0.3 µM in series [3] (setting [17]); 5.1 ± 0.2 µM in [7] (setting [17]); 8.9 ± 0.4 µM in series [8] (setting [17]); 3.9 ± 0.2 µM in series [4] (setting [17]); 4.3 ± 0.4 µM in series [9] (setting [17]); 3.6 ± 0.1 µM in series [10] (setting [17]). Also, the Kd in series [5] (setting [17]) worked out at 3.9 ± 0.3 µM; in series [6] (setting [17]), 3.8 ± 0.2 µM; in series [1] (setting [17]) it was 3.6 ± 0.2 µM.

B6: ds26 (dsDNA)
DNA 1: ACTGCCCTTACAGCACAGCGGTTTTT
DNA 2: AAAAACCGCTGTGCTGTAAGGGCAGT
With B6, in [1] (setting [13]), the Kd turned out to be 18.8 ± 0.7 µM.

Regarding ACTGCCCTTACAGCACAGCGGTTTTT (ssDNA) [ss26], the Kd in series [1] (label: 5' 6-FAM) turned out to be 9.9 ± 0.6 µM.

For the molecule TTTTTTTTTTTTTTTTTTTTTTTTTTTTTT (ssDNA) [*5'-(T)30], the binding result (with RAD51 [11] (label: 5' 6-FAM); in series [12] (label: 5' 6-FAM)) was “binds” each time.

As for ACTGCCCTTACAGCACAGCGGTTTTTTTTTT (ssDNA) [ss31], the Kd in [1] (label: 5' 6-FAM) was 5.7 ± 0.3 µM.

Consider ACTTACAGCACAGCGGTTTTT (ssDNA) [ss21], for which the Kd in [1] (label: 5' 6-FAM) was 10.1 ± 0.9 µM.

For the molecule TTTTTTTTTTTTTTTTTTTTTTTTTTTTTT (ssDNA) [*3'-(T)30], the binding result (with RAD51 [11] (label: 3' 6-FAM); in [12] (label: 3' 6-FAM)) was “binds” in each case.
